# Assay results taken from the RNAGym collection of RNA variant scans (doi:10.1073/pnas.2313332121).
# B1: TPR t1 (parent)
# chain: GACCAAUCUGCCCUCAGAGCUCGAGAACAUCUUCGGAUGCAGAGGAGGCAGGCUUCGGUGGCGCGAUAGCGCCAACGUCCUCAACCUCCAAUGCAUCCCACCACAUGAUGAUGCCUGAAGAGCCUUGGUUUUUUG
# Variants of: B1
# Assay: polymerase ribozyme fitness, log enrichment relative to wild type (log ratio); higher = more active; in vitro selection for triplet polymerase activity
# In short: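 Mutant libraries were PCR-built and transcribed for each subunit of a heterodimeric triplet polymerase ribozyme and selected for one round in triplicate at −7 °C, frozen, before gel excision of extended constructs and streptavidin-bead capture. Input and output libraries were Illumina-sequenced, keeping genotypes with ≥10 input reads and ≥1 read per output. Fitness is a logarithmic ratio of genotype to wild-type enrichment, in base 2, using inverse-variance-weighted replicate averages.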
row,Variant,polymerase ribozyme fitness (log ratio)
1,C12U A83U,0.364
2,C12U A84U U131G,-0.996
3,C12U A103U,-4.81
4,C12U C13U A18U C20G,-4.78
5,C12U C13U A43G G61A U130G,-2.17
6,C12U C13U C70U G71C U96A U112G U131C,-4
7,C12U C15A A37C G52U U116G,-3.09
8,C12U C15A U125G U133A,-1.18
9,C12U C15G G39A C56A G120A,0.312
10,C12U C15U A46C G47A G69C A100G C101U G113U C123G,-7.1
11,C12U C15U C49A C101U U133G,-1.18
12,C12U C20A A74U G128A,-5.15
13,C12U C20A A75C C114A G117U,-5.53
14,C12U C20G A43C G48A,-5.39
15,C12U C20U A43U C72U C82A U112A C114G,-2.38
16,C12U C20U A91U U116G,-4.44
17,C12U C28A C40U C73U,-4.89
18,C12U C28U C49U C82A,-3.01
19,C12U C34G C115G,-6.11
20,C12U C40U,-0.543
21,C12U C53A G58C A119U,-0.505

row,Variant,polymerase ribozyme fitness (log ratio)
1,C12U C53A G58C C82G G128A,-2.46
2,C12U C53G,-0.45
3,C12U C53U C56U,-0.154
4,C12U C56A,-0.454
5,C12U C56A U92G C101G A121G,-3.35
6,C12U C56G,-0.12
7,C12U C62G,-1.57
8,C12U C62G U126A,-2.76
9,C12U C62U C80G U109G C114A,-6.17
10,C12U C70A C88G U129C,-2.57
11,C12U C72G C102A,-2.37
12,C12U C72G G117C A119U,-1
13,C12U C72G U112C,1.25
14,C12U C72U A100C G113U G127A,-3.91
15,C12U C72U G128U,-1.55
16,C12U C72U U96A C115U,-1.92
17,C12U C73A C97G C104U,-2.89
18,C12U C73U U81G C82G C123A,0.809
19,C12U C79A,-0.645
20,C12U C79G,-1.07
21,C12U C79G C89A A121C,-3.82

row,Variant,polymerase ribozyme fitness (log ratio)
1,C12U C79G C101U G120A,0.377
2,C12U C80U C89U C99U G120A,-2.97
3,C12U C86A,0.101
4,C12U C89U,0.399
5,C12U C98G,-4.85
6,C12U C98U,-0.736
7,C12U C101U,-0.102
8,C12U C102A,-1.07
9,C12U C102A C124U,0.00391
10,C12U C123A,2.11
11,C12U C124A,1.8
12,C12U G17C C49U C82G C94U C99G C123A,-7.59
13,C12U G17U,-0.854
14,C12U G19A C56G U130C,-2.66
15,C12U G19U,-2.49
16,C12U G35A G42U U112C,-5.14
17,C12U G36U G47U U106G,-5.66
18,C12U G39C G45U A100U U131G,-3
19,C12U G39U U55A G71A C94G C102A G113U,-6.81
20,C12U G42A A95U,-1.64
21,C12U G42C C53A G71U C88G G128A G135U,-6.24

row,Variant,polymerase ribozyme fitness (log ratio)
1,C12U G42C C72U,-1.28
2,C12U G42C C73A G122A,-0.687
3,C12U G42U C73A U112A G135C,-0.178
4,C12U G44C A50C,-0.802
5,C12U G44U,-0.985
6,C12U G44U A46U C85A,-4.14
7,C12U G44U C72G G127A G128C,-4.51
8,C12U G45C C102A,-2.34
9,C12U G47A G113U,-3.45
10,C12U G47C C97G G120C,-3.35
11,C12U G47U A83C,-2.09
12,C12U G47U C86G G122A,0.433
13,C12U G48C C72G U131G,-1.72
14,C12U G51C C79U,-2.71
15,C12U G52A G117C,-0.882
16,C12U G52A U112A G120A,1.03
17,C12U G52U C53G U78G,-0.0807
18,C12U G57A,-0.879
19,C12U G58A C62A,-1.76
20,C12U G60A,-0.607
21,C12U G60C,0.537
